# Measured values from PMC8092224.
# Target: H. pylori-bullfrog recombinant ferritin (ferritin nanoparticle) (bullfrog (Rana catesbeiana) | Helicobacter pylori)
# Assay: SEC; concentrated supernatant (100-kDa MWCO TFF) on Superdex 200 Increase 10/300 GL, degassed PBS, 0.4 ml/min; size from LMW/HMW calibration standards; self-assembly of the monomer into the nanoparticle
substance,measurement,value
H. pylori-bullfrog recombinant ferritin (ferritin nanoparticle),stoichiometry N,24
